Measured values published in patent US7166426.
Where “and” joins values, the source holds several entries; their conditions need not be identical. Identical values can stand only once.

Assays:
[1] = biological target: denatured NS3/4a (hepatitis C virus, HCV-1 (HCV1a)) (UniProt P26664); assay: ELISA, antigen coated on microtiter plate, negative control
[2] = biological target: NS3/4a conformational epitope with Thr to Pro and Ser to Ile substitutions (hepatitis C virus, HCV-1 (HCV1a)) (UniProt P26664); assay: as above
c200 antigen [3] = assay: as above
[4] = biological target: denatured NS3/4a (hepatitis C virus, HCV-1 (HCV1a)) (UniProt P26664); assay: ELISA, antigen coated on microtiter plate, average of the negative controls
[5] = biological target: NS3/4a conformational epitope with Thr to Pro and Ser to Ile substitutions (hepatitis C virus, HCV-1 (HCV1a)) (UniProt P26664); assay: as above
c200 antigen [6] = assay: as above

Substance: HCV 3.0 Controls, negative control
- OD [1]: 0.024 OD and 0.017 OD
- OD [2]: 0.023 OD and 0.027 OD and 0.021 OD
- OD (c200 antigen [3]): 0.008 OD and 0.007 OD and 0.005 OD
- OD (average of Neg. Cont.) [4]: 0.022 OD
- OD (average of Neg. Cont.) [5]: 0.024 OD
- OD (average of Neg. Cont.) (c200 antigen [6]): 0.007 OD
